Laboratory results as given in publication PMC9458431, “2′-O-Methylation of the second transcribed nucleotide within the mRNA 5′ cap impacts the protein production level in a cell-specific manner and contributes to RNA immune evasion”.

Key:
Settings in all cases: protein: recombinant
[1] = target: T1, eIF4E (murine) (Mus musculus, UniProt P63073 28-217); assay: MST competition; vs m7Gp5OC3(5)FAM; not destabilized by m6A; MST: 50 mM HEPES-KOH pH 7.2, 100 mM KCl, 0.5 mM EDTA, 0.05% Tween-20, 25 C, 50 nM eIF4E, 10 nM probe; pull-down: 20 mM Tris-HCl pH 7.4, 150 mM NaCl, 2 mM MgCl2, 2 mM DTT, 0.2% IGEPAL, 4 C
T1 sequence (P63073 28-217): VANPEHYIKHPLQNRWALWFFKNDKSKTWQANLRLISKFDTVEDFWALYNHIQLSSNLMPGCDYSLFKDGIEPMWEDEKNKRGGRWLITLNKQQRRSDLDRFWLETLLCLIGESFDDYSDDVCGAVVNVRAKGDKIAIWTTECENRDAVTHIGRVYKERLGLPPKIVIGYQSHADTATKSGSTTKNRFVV

[2] = target: T1, eIF4E (murine); assay: MST competition; vs m7Gp5OC3(5)FAM; as cap0(A); MST: 50 mM HEPES-KOH pH 7.2, 100 mM KCl, 0.5 mM EDTA, 0.05% Tween-20, 25 C, 50 nM eIF4E, 10 nM probe; pull-down: 20 mM Tris-HCl pH 7.4, 150 mM NaCl, 2 mM MgCl2, 2 mM DTT, 0.2% IGEPAL, 4 C
[3] = target: T1, eIF4E (murine); assay: MST competition; vs 10 nM m7Gp5OC3(5)FAM; KD,app only in figure; MST: 50 mM HEPES-KOH pH 7.2, 100 mM KCl, 0.5 mM EDTA, 0.05% Tween-20, 25 C, 50 nM eIF4E, 10 nM probe; pull-down: 20 mM Tris-HCl pH 7.4, 150 mM NaCl, 2 mM MgCl2, 2 mM DTT, 0.2% IGEPAL, 4 C

| Binder | binding result [2] | further results |
| --- | --- | --- |
| AGGGGAAGCGGGCAUGCGGCCAGCCA (ssRNA, m7Gppp-m6ApGm) [cap2-1(m6A) RNA] |  | binding result [1]: binds |
| AGGGGAAGCGGGCAUGCGGCCAGCCA (ssRNA, m7Gppp-AmpGm (2'-O-Me at nt 1 and 2)) [cap2(A) RNA] | binds |  |
| AGGGGAAGCGGGCAUGCGGCCAGCCA (ssRNA, m7Gppp-Am (2'-O-Me at nt 1)) [cap1(A) RNA] | binds |  |
| AGGGGAAGCGGGCAUGCGGCCAGCCA (ssRNA, m7Gppp-ApGm (2'-O-Me at nt 2 only)) [cap2-1(A) RNA] | binds |  |
| AGGGGAAGCGGGCAUGCGGCCAGCCA (ssRNA, m7Gppp-A) [cap0(A) RNA] |  | binding result [3]: binds |
